A value given as a limit tells only on which side of the number the result lay.

In ChEMBL document CHEMBL6087449, “Identification of an Isoxazole Derivative as an Antitubercular Compound for Targeting the FadD Enzymes of Mycobacterium tuberculosis” (J Med Chem, 2025) one finds MIC and Km data, which are given here for two molecules.

Series [1] has as its system Mycobacterium tuberculosis. The experiment in a line: Antitubercular activity against Mycobacterium tuberculosis by alamar blue assay. The series is classed as functional.
Compound in series [2]: Oc1c(Br)cc(Br)cc1-c1cc(C(F)(F)F)no1
The experiment in a line: Binding affinity to Mycobacterium tuberculosis H37Rv recombinant FadD32 assessed as Km in presence of ATP by Michaelis-Menten plot analysis.

Compound in series [3]: Oc1c(Br)cc(Br)cc1-c1cc(C(F)(F)F)no1
The experiment in a line: Binding affinity to Mycobacterium tuberculosis H37Rv recombinant FadD32 assessed as Km in presence of lauric acid by Michaelis-Menten plot analysis.

Broadly, the MIC is the lowest concentration found to suppress growth. Higher therefore signals a need for much substance. Consider `Nc1ncnc2c1ncn2[C@@H]1O[C@H](COS(=O)(=O)NC(=O)c2ccc(O)cc2)[C@@H](O)[C@H]1O`, for which the MIC in series [1] was more than 800 µM.

B1: Long-chain-fatty-acid--AMP ligase FadD32 (Mycobacterium tuberculosis (strain ATCC 25618 / H37Rv)), O53580 (protein)
chain: MFVTGESGMAYHNPFIVNGKIRFPANTNLVRHVEKWAKVRGDKLAYRFLDFSTERDGVARDILWSDFSARNRAVGARLQQVTQPGDRVAILCPQNLDYLISFFGALYSGRIAVPLFDPAEPGHVGRLHAVLDDCAPSTILTTTDSAEGVRKFIRARSAKERPRVIAVDAVPTEVAATWQQPEANEETVAYLQYTSGSTRIPSGVQITHLNLPTNVVQVLNALEGQEGDRGVSWLPFFHDMGLITVLLASVLGHSFTFMTPAAFVRRPGRWIRELARKPGETGGTFSAAPNFAFEHAAVRGVPRDDEPPLDLSNVKGILNGSEPVSPASMRKFFEAFAPYGLKQTAVKPSYGLAEATLFVSTTPMDEVPTVIHVDRDELNNQRFVEVAADAPNAVAQVSAGKVGVSEWAVIVDADTASELPDGQIGEIWLHGNNLGTGYWGKEEESAQTFKNILKSRISESRAEGAPDDALWVRTGDYGTYFKDHLYIAGRIKDLVIIDGRNHYPQDLECTAQESTKALRVGYAAAFSVPANQLPQTVFDDSHAGLKFDPEDTSEQLVIVGERAAGTHKLDHQPIVDDIRAAIAVGHGVTVRDVLLVSAGTIPRTSSGKIGRRACRAAYLDGSLRSGVGSPTVFATSD
As usually defined, the Km is the concentration of substrate that gives half-maximal velocity. B1: the Km in series [2] stood at 248 µM; in series [3], 139 µM.
